In PMC11079029, “Intramolecular autoinhibition regulates the selectivity of PRPF40A tandem WW domains for proline-rich motifs” (Nature Communications, 2024):

B1: SF3B2 (protein, UniProt Q13435 1-895, looked up)
Splicing factor 3B subunit 2: MATEHPEPPKAELQLPPPPPPGHYGAWAAQELQAKLAEIGAPIQGNREELVERLQSYTRQTGIVLNRPVLRGEDGDKAAPPPMSAQLPGIPMPPPPLGLPPLQPPPPPPPPPPGLGLGFPMAHPPNLGPPPPLRVGEPVALSEEERLKLAQQQAALLMQQEERAKQQGDHSLKEHELLEQQKRAAVLLEQERQQEIAKMGTPVPRPPQDMGQIGVRTPLGPRVAAPVGPVGPTPTVLPMGAPVPRPRGPPPPPGDENREMDDPSVGPKIPQALEKILQLKESRQEEMNSQQEEEEMETDARSSLGQSASETEEDTVSVSKKEKNRKRRNRKKKKKPQRVRGVSSESSGDREKDSTRSRGSDSPAADVEIEYVTEEPEIYEPNFIFFKRIFEAFKLTDDVKKEKEKEPEKLDKLENSAAPKKKGFEEEHKDSDDDSSDDEQEKKPEAPKLSKKKLRRMNRFTVAELKQLVARPDVVEMHDVTAQDPKLLVHLKATRNSVPVPRHWCFKRKYLQGKRGIEKPPFELPDFIKRTGIQEMREALQEKEEQKTMKSKMREKVRPKMGKIDIDYQKLHDAFFKWQTKPKLTIHGDLYYEGKEFETRLKEKKPGDLSDELRISLGMPVGPNAHKVPPPWLIAMQRYGPPPSYPNLKIPGLNSPIPESCSFGYHAGGWGKPPVDETGKPLYGDVFGTNAAEFQTKTEEEEIDRTPWGELEPSDEESSEEEEEEESDEDKPDETGFITPADSGLITPGGFSSVPAGMETPELIELRKKKIEEAMDGSETPQLFTVLPEKRTATVGGAMMGSTHIYDMSTVMSRKGPAPELQGVEVALAPEELELDPMAMTQKYEEHVREQQAQVEKEDFSDMVAEHAAKQKQKKRKAQPQDSRGGSKKYKEFKF
B2: SF3B3 (protein, UniProt Q15393 1-1217, looked up)
Splicing factor 3B subunit 3: MFLYNLTLQRATGISFAIHGNFSGTKQQEIVVSRGKILELLRPDPNTGKVHTLLTVEVFGVIRSLMAFRLTGGTKDYIVVGSDSGRIVILEYQPSKNMFEKIHQETFGKSGCRRIVPGQFLAVDPKGRAVMISAIEKQKLVYILNRDAAARLTISSPLEAHKANTLVYHVVGVDVGFENPMFACLEMDYEEADNDPTGEAAANTQQTLTFYELDLGLNHVVRKYSEPLEEHGNFLITVPGGSDGPSGVLICSENYITYKNFGDQPDIRCPIPRRRNDLDDPERGMIFVCSATHKTKSMFFFLAQTEQGDIFKITLETDEDMVTEIRLKYFDTVPVAAAMCVLKTGFLFVASEFGNHYLYQIAHLGDDDEEPEFSSAMPLEEGDTFFFQPRPLKNLVLVDELDSLSPILFCQIADLANEDTPQLYVACGRGPRSSLRVLRHGLEVSEMAVSELPGNPNAVWTVRRHIEDEFDAYIIVSFVNATLVLSIGETVEEVTDSGFLGTTPTLSCSLLGDDALVQVYPDGIRHIRADKRVNEWKTPGKKTIVKCAVNQRQVVIALTGGELVYFEMDPSGQLNEYTERKEMSADVVCMSLANVPPGEQRSRFLAVGLVDNTVRIISLDPSDCLQPLSMQALPAQPESLCIVEMGGTEKQDELGERGSIGFLYLNIGLQNGVLLRTVLDPVTGDLSDTRTRYLGSRPVKLFRVRMQGQEAVLAMSSRSWLSYSYQSRFHLTPLSYETLEFASGFASEQCPEGIVAISTNTLRILALEKLGAVFNQVAFPLQYTPRKFVIHPESNNLIIIETDHNAYTEATKAQRKQQMAEEMVEAAGEDERELAAEMAAAFLNENLPESIFGAPKAGNGQWASVIRVMNPIQGNTLDLVQLEQNEAAFSVAVCRFSNTGEDWYVLVGVAKDLILNPRSVAGGFVYTYKLVNNGEKLEFLHKTPVEEVPAAIAPFQGRVLIGVGKLLRVYDLGKKKLLRKCENKHIANYISGIQTIGHRVIVSDVQESFIWVRYKRNENQLIIFADDTYPRWVTTASLLDYDTVAGADKFGNICVVRLPPNTNDEVDEDPTGNKALWDRGLLNGASQKAEVIMNYHVGETVLSLQKTTLIPGGSESLVYTTLSGGIGILVPFTSHEDHDFFQHVEMHLRSEHPPLCGRDHLSFRSYYFPVKNVIDGDLCEQFNSMEPNKQKNVSEELDRTPPEVSKKLEDIRTRYAF
B3: SF1 (protein, UniProt Q15637 2-639, looked up)
Splicing factor 1: ATGANATPLDFPSKKRKRSRWNQDTMEQKTVIPGMPTVIPPGLTREQERAYIVQLQIEDLTRKLRTGDLGIPPNPEDRSPSPEPIYNSEGKRLNTREFRTRKKLEEERHNLITEMVALNPDFKPPADYKPPATRVSDKVMIPQDEYPEINFVGLLIGPRGNTLKNIEKECNAKIMIRGKGSVKEGKVGRKDGQMLPGEDEPLHALVTANTMENVKKAVEQIRNILKQGIETPEDQNDLRKMQLRELARLNGTLREDDNRILRPWQSSETRSITNTTVCTKCGGAGHIASDCKFQRPGDPQSAQDKARMDKEYLSLMAELGEAPVPASVGSTSGPATTPLASAPRPAAPANNPPPPSLMSTTQSRPPWMNSGPSESRPYHGMHGGGPGGPGGGPHSFPHPLPSLTGGHGGHPMQHNPNGPPPPWMQPPPPPMNQGPHPPGHHGPPPMDQYLGSTPVGSGVYRLHQGKGMMPPPPMGMMPPPPPPPSGQPPPPPSGPLPPWQQQQQQPPPPPPPSSSMASSTPLPWQQNTTTTTTSAGTGSIPPWQQQQAAAAASPGAPQMQGNPTMVPLPPGVQPPLPPGAPPPPPPPPPGSAGMMYAPPPPPPPPMDPSNFVTMMGMGVAGMPPFGMPPAPPPPPPQN
B4: ATAD3A (protein, UniProt Q9NVI7 2-586, looked up)
ATPase family AAA …: SWLFGINKGPKGEGAGPPPPLPPAQPGAEGGGDRGLGDRPAPKDKWSNFDPTGLERAAKAARELEHSRYAKDALNLAQMQEQTLQLEQQSKLKEYEAAVEQLKSEQIRAQAEERRKTLSEETRQHQARAQYQDKLARQRYEDQLKQQQLLNEENLRKQEESVQKQEAMRRATVEREMELRHKNEMLRVEAEARARAKAERENADIIREQIRLKAAEHRQTVLESIRTAGTLFGEGFRAFVTDWDKVTATVAGLTLLAVGVYSAKNATLVAGRFIEARLGKPSLVRETSRITVLEALRHPIQVSRRLLSRPQDALEGVVLSPSLEARVRDIAIATRNTKKNRSLYRNILMYGPPGTGKTLFAKKLALHSGMDYAIMTGGDVAPMGREGVTAMHKLFDWANTSRRGLLLFVDEADAFLRKRATEKISEDLRATLNAFLYRTGQHSNKFMLVLASNQPEQFDWAINDRINEMVHFDLPGQEERERLVRMYFDKYVLKPATEGKQRLKLAQFDYGRKCSEVARLTEGMSGREIAQLAVSWQATAYASEDGVLTEAMMDTRVQDAVQQHQQKMCWLKAEGPGRGDEPSPS
B5: RBM17 (protein, UniProt Q96I25 2-401, looked up)
Splicing factor 45: SLYDDLGVETSDSKTEGWSKNFKLLQSQLQVKKAALTQAKSQRTKQSTVLAPVIDLKRGGSSDDRQIVDTPPHVAAGLKDPVPSGFSAGEVLIPLADEYDPMFPNDYEKVVKRQREERQRQRELERQKEIEEREKRRKDRHEASGFARRPDPDSDEDEDYERERRKRSMGGAAIAPPTSLVEKDKELPRDFPYEEDSRPRSQSSKAAIPPPVYEEQDRPRSPTGPSNSFLANMGGTVAHKIMQKYGFREGQGLGKHEQGLSTALSVEKTSKRGGKIIVGDATEKDASKKSDSNPLTEILKCPTKVVLLRNMVGAGEVDEDLEVETKEECEKYGKVGKCVIFEIPGAPDDEAVRIFLEFERVESAIKAVVDLNGRYFGGRVVKACFYNLDKFRVLDLAEQV

These molecules were tested on GFP-tagged PRPF40A-Nter-MUT (assay: SILAC GFP-immunoprecipitation with quantitative mass spectrometry, mutant construct). Conditions: quantitative MS, Hela cells, protein by gene name.
Assay type: binding, human (Hela cells)
Protocol: The PRPF40A N-terminal region (isoform 2, residues 1-221) was PCR-amplified from RPE1 cDNA (ATCC, Cat# CRL-4000) cDNA. The sequence was amplified in two fragments and both fragments were combined by overhang. All PCRs were carried out using Q5 Polymerase (NEB) according to manufacturer’s protocol. The resulting PRPF40A N-terminal region was cloned into a GFP-expressing pcDNA5 vector (see pcDNA5 GFP vector in ref. [28]) using Q5 Site-Directed Mutagenesis Kit (NEB). Nter-MUT, containing the PPVP/PALPP motifs changed to AAAA/AAAAA, was obtained by mutating the N-ter-WW12-containing plasmid with Q5 site-directed mutagenesis. Plasmids were transformed into DH5alpha chemically competent cells. After culturing, DNA isolation was performed with either ZymoPURE Plasmid Miniprep Kit (Zymo Research) or QIAGEN Plasmid Plus Midi Kit (Qiagen). The sequence was confirmed by Sanger Sequencing (GATC Eurofins). All used oligonucleotides are shown in Supplementary Table 6.
Hela cells (ATCC, Cat# CCL-2, RRID:CVCL_0030) were cultured in DMEM SILAC medium (Thermo Fisher) supplemented with 10% filtered FBS (Sigma-Aldrich) and 1% penicillin-streptomycin (Thermo-Fisher). The SILAC medium contains either light (Arg0, Lys0), medium (Arg6, Lys4) or heavy (Arg10, Lys8) isotopes (Cambridge Isotopes Laboratories). Hela cells were cultivated for 14 days in SILAC medium to assure sufficient isotope incorporation. For transfection, 7 × 10^6 Hela cells were seeded in a 15 cm culture dish in 20 ml of respective SILAC medium and grown for 24 h. The cells were then transfected with 20 µg of plasmids expressing either GFP (Control), GFP-tagged N-ext-WW12 or GFP-tagged-N-ext-WW12-MUT utilizing 64 µl FuGENE (Promega) (ratio 1:3.2), according to manufacturer’s protocol.
24 h post-transfection, cells were washed twice in ice-cold PBS and harvested in 1 ml mRIPA buffer (50 mM Tris, 150 mM NaCl, 1 mM EDTA, 1% NP-40, 0.1% Na-deoxycholate), supplemented with 2 µl Turbo-DNase (Thermo Fisher) and 3 µl protease-inhibitor cocktail cOmplete (Sigma-Aldrich). Cell lysates were cleared by centrifugation at 16,000 × g, 4 °C, 15 min and concentration was measured using Pierce BCA Protein Assay kit (Thermo Scientific). The expressed constructs were pulled down by incubating 2.5 mg of lysate with 20 μl GFP-nanobody agarose beads (ChromoTek, GTA-20) for 1 h at 4 °C under constant agitation. Subsequently, beads were washed three times with mRIPA buffer without supplements, then eluted in 1X NuPAGE LDS sample buffer (Thermo Scientific). To detach the proteins from the beads, the eluate was heated to 70 °C for 10 min To evaluate the success of the immunoprecipitation, input (1%) and IP samples were analyzed on a NuPAGE 4–12% Bis-Tris-Acrylamide gel (Thermo Fisher) using NuPAGE MOPS SDS running buffer (Thermo Fisher). Proteins were stained using Sypro Ruby protein gel stain (Thermo Fisher) according to manufacturer’s protocol.
The eluted proteins of three SILAC states (light, medium, heavy) were combined. The proteins were then reduced in DTT, alkylated in iodoacetamide, and purified using the SP3 paramagnetic bead approach. This was followed by overnight enzymatic digestion using trypsin (1 µg per sample) in 50 mM ammonium bicarbonate at 37 °C. The peptide solution was then purified by solid phase extraction in C18 StageTips[99].
Peptides were separated by online reverse phase liquid chromatography using the EASY-nLC 1000 system (Thermo Scientific) in a 30-cm analytical column (inner diameter: 75 μm; heated at 50 °C) packed in-house with ReproSil-Pur 120 C18-AQ 1.9-μm beads (Dr. Maisch GmbH). The gradient separation was performed through a 105-min non-linear gradient of 1.6–32% acetonitrile with 0.1% formic acid at a nanoflow rate of 225 nl/min. The eluted peptides were sprayed directly by electrospray ionization into a Q Exactive Plus Orbitrap mass spectrometer (Thermo Scientific). […]

In order of rising “Immunoprecipitation enrichment MUT vs WT, log2 FC” value:
1. B1  0.8966
2. B2  0.8966
3. B3  0.9625
4. B4  1.016
5. B5  1.293
